Values quoted from earlier work in publication PMC12805100.
Where two headings read alike, the source gives them in different places.

Tests used:
[1] = biological target: Calmodulin (Homo sapiens) (UniProt P0DP23)
[2] = biological target: Calmodulin (Homo sapiens) (UniProt P0DP23); remark: listed apart in the source

TRPA1 DCTCaMBE (from UniProt O75762)
Kd [1]: 600 nM | Kd [2]: 100 nM
